How the values were obtained:
GST-His6-2×HBD = GST-His6-2×HBD (UniProt O60930); experiment: BLI; conditions: EMSA: 30 nM probe, 20 mM Hepes pH 7.0, 100 mM NaCl, 5% glycerol, 10 mM DTT, 0.5 mM EDTA, 5 ug/ml salmon sperm DNA, 25°C 30 min; BLI: 20 mM Hepes-NaOH pH 7.5 …
GST-His6-HBD = target: T1, GST-His6-HBD (UniProt O60930); experiment: BLI; conditions: EMSA: 30 nM probe, 20 mM Hepes pH 7.0, 100 mM NaCl, 5% glycerol, 10 mM DTT, 0.5 mM EDTA, 5 ug/ml salmon sperm DNA, 25°C 30 min; BLI: 20 mM Hepes-NaOH pH 7.5 …
T1 sequence (O60930 whole entry, looked up): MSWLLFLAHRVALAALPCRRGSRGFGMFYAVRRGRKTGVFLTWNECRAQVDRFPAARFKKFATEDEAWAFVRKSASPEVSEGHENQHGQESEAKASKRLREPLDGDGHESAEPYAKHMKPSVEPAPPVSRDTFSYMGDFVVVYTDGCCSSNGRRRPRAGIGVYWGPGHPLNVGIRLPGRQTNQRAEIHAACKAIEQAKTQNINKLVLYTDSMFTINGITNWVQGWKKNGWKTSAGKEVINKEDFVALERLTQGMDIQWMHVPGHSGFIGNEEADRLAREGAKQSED

AGCGTGCCGTGCAACAACATTACAC / GUGUAAUGUUGUUGCACGGCACGCU [biotin DNA-RNA hybrid 25-mer (BLI)]
Kd (GST-His6-2×HBD): 10.4 nM | Kd (GST-His6-HBD): 16.5 nM

Source: PMC7888926
